Numbered stars: 1 amine (or outer) side, 2 acyl side, 3 side chain; on linkers, the order of the positions; unused ones are H or OH. Bridge positions count the residues as written; N and C are the ends. Side chains are listed from the residue outwards. Ends that are not written are not given here. * marks the point of attachment. C20 diacid = O=C(O)CCCCCCCCCCCCCCCCCCC(=O)*; γGlu = O=C(O)[C@H](CCC(=O)[*:2])N[*:1]

Test [1] has as its target T1, human calcitonin receptor (human, UniProt P30988 25-474).
T1 construct: whole, on cells; Assay used cell membranes, not intact cells; also called hCTR; hCT
T1 sequence (looked up): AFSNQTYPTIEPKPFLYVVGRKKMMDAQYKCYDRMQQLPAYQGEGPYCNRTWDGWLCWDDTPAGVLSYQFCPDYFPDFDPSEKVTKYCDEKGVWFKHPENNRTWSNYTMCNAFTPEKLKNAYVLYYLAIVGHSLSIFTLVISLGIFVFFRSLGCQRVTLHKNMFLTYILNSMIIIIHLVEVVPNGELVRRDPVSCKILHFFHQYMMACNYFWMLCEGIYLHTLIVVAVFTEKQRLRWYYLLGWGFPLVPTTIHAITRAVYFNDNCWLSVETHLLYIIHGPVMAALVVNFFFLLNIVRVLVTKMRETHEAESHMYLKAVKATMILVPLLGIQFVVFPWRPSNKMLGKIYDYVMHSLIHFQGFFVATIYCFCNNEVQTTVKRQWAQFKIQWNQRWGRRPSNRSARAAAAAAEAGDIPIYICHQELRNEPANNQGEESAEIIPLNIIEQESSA
Nature of the test: ratio IC50 hCTR / IC50 hAmylin-R (reference: human amylin receptor), SPA competition assays. The method, boiled down:
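Scintillation proximity competition binding on cell membranes at 35 ng/μL with SPA beads, in 50 mM Hepes pH 7.4, 1 mM CaCl2, 5 mM MgCl₂, 0.1% OA, 0.02% Tween20. Incubated 120 min at 25° C with shaking. IC₅₀ from one-site competition fit.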

Test [2] deals with T1, human calcitonin receptor. Nature of the test: SPA competition with 125I-calcitonin on membranes of BHK cells with human calcitonin receptor (Assay VII). The method, boiled down:
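BHK hCTR membranes 35 ng/μL + SPA beads 0.05 mg/well; buffer 50 mM Hepes pH 7.4, 1 mM CaCl2, 5 mM MgCl₂, 0.1% OA, 0.02% Tween20. 120 min, 25° C., shaking. Scintillation count; IC50 by one-site binding competition.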

Test [3] concerns the target T2, human amylin receptor (amylin 3(a) receptor: human calcitonin receptor with RAMP-3) (human, UniProt P30988 25-474; O60896 24-148).
T2 construct: whole, on cells; Assay used cell membranes of the Amylin 3(a)/CRE-luc BHK cells, not intact cells; also called hAmylin-R; hAmylinR
T2 sequence (looked up) 1: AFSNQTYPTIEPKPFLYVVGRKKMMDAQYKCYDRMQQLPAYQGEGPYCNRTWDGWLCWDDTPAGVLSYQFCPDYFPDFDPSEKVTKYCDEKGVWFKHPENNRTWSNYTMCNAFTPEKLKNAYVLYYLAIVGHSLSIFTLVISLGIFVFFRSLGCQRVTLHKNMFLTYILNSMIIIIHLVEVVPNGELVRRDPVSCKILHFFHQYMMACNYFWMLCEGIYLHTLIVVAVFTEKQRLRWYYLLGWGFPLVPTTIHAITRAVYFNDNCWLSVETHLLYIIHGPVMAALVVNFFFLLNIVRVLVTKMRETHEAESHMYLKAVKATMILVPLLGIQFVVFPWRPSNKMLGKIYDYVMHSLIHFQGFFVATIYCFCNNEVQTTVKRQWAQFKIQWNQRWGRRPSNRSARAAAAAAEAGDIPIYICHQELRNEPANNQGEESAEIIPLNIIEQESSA
T2 sequence (looked up) 2: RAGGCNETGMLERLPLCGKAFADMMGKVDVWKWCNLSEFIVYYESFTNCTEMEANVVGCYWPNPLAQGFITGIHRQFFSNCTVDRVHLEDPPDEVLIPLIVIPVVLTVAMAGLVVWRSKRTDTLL
Nature of the test: SPA competition with 125I-rat amylin on membranes of BHK cells with human calcitonin receptor and RAMP-3 (Assay V). The method, boiled down: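 Membranes from BHK Amylin 3(a)/CRE-luc cells (35 ng/μL final) were mixed with SPA beads and test compounds in 50 mM Hepes pH 7.4 with 1 mM CaCl2, 5 mM MgCl₂, 0.1% OA and 0.02% Tween20. Incubation ran 120 min at 25° C with shaking; IC₅₀ came from one-site competition fitting.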

B1: N^ε1-[(4S)-4-carboxy-4-(19-carboxynonadecanoylamino)butanoyl]-[Glu14,Arg17,Pro21,Pro27,His35]-h-amylin (peptide)
peptide: K([γGlu-C20 diacid])CNTATCATQRLAEFLRHSSPNFGAIPSSTNVGSHTY-NH2
modifications: disulfide 2-7; N-terminus assumed
SMILES: CC[C@H](C)[C@H](NC(=O)[C@H](C)NC(=O)CNC(=O)[C@H](Cc1ccccc1)NC(=O)[C@H](CC(N)=O)NC(=O)[C@@H]1CCCN1C(=O)[C@H](CO)NC(=O)[C@H](CO)NC(=O)[C@H](Cc1c[nH]cn1)NC(=O)[C@H](CCCNC(=N)N)NC(=O)[C@H](CC(C)C)NC(=O)[C@H](Cc1ccccc1)NC(=O)[C@H](CCC(=O)O)NC(=O)[C@H](C)NC(=O)[C@H](CC(C)C)NC(=O)[C@H](CCCNC(=N)N)NC(=O)[C@H](CCC(N)=O)NC(=O)[C@@H](NC(=O)[C@H](C)NC(=O)[C@@H]1CSSC[C@H](NC(=O)[C@@H](N)CCCCNC(=O)CC[C@H](NC(=O)CCCCCCCCCCCCCCCCCCC(=O)O)C(=O)O)C(=O)N[C@@H](CC(N)=O)C(=O)N[C@@H]([C@@H](C)O)C(=O)N[C@@H](C)C(=O)N[C@@H]([C@@H](C)O)C(=O)N1)[C@@H](C)O)C(=O)N1CCC[C@H]1C(=O)N[C@@H](CO)C(=O)N[C@@H](CO)C(=O)N[C@H](C(=O)N[C@@H](CC(N)=O)C(=O)N[C@H](C(=O)NCC(=O)N[C@@H](CO)C(=O)N[C@@H](Cc1c[nH]cn1)C(=O)N[C@H](C(=O)N[C@@H](Cc1ccc(O)cc1)C(N)=O)[C@@H](C)O)C(C)C)[C@@H](C)O
As usually defined, the IC50 is the concentration that gives 50% inhibition. On to B1, for which, in test [1], the “Ratio hCT/hAmylin binding” value is 26.4. For the same molecule, the figures for the IC50 in test [2] and in test [3] were 26.1 nM and 0.992 nM, respectively.

Take K([γGlu-C20 diacid])CNTATCATQRLAEFLRHSSPNFGAIPSSTNVGPHTY-NH2 (disulfide 2-7): the “Ratio hCT/hAmylin binding” value in test [1] amounted to 21.2. Besides, the figures for the IC50 in test [2] and in test [3] were 3.8 nM and 0.179 nM, respectively.

B2: N^ε1-[(4S)-4-carboxy-4-(19-carboxynonadecanoylamino)butanoyl]-[Glu14,Arg17,Pro21,Pro27,Pro34,Glu35]-h-amylin (peptide)
peptide: K([γGlu-C20 diacid])CNTATCATQRLAEFLRHSSPNFGAIPSSTNVGPETY-NH2
modifications: disulfide 2-7; N-terminus assumed
SMILES: CC[C@H](C)[C@H](NC(=O)[C@H](C)NC(=O)CNC(=O)[C@H](Cc1ccccc1)NC(=O)[C@H](CC(N)=O)NC(=O)[C@@H]1CCCN1C(=O)[C@H](CO)NC(=O)[C@H](CO)NC(=O)[C@H](Cc1c[nH]cn1)NC(=O)[C@H](CCCNC(=N)N)NC(=O)[C@H](CC(C)C)NC(=O)[C@H](Cc1ccccc1)NC(=O)[C@H](CCC(=O)O)NC(=O)[C@H](C)NC(=O)[C@H](CC(C)C)NC(=O)[C@H](CCCNC(=N)N)NC(=O)[C@H](CCC(N)=O)NC(=O)[C@@H](NC(=O)[C@H](C)NC(=O)[C@@H]1CSSC[C@H](NC(=O)[C@@H](N)CCCCNC(=O)CC[C@H](NC(=O)CCCCCCCCCCCCCCCCCCC(=O)O)C(=O)O)C(=O)N[C@@H](CC(N)=O)C(=O)N[C@@H]([C@@H](C)O)C(=O)N[C@@H](C)C(=O)N[C@@H]([C@@H](C)O)C(=O)N1)[C@@H](C)O)C(=O)N1CCC[C@H]1C(=O)N[C@@H](CO)C(=O)N[C@@H](CO)C(=O)N[C@H](C(=O)N[C@@H](CC(N)=O)C(=O)N[C@H](C(=O)NCC(=O)N1CCC[C@H]1C(=O)N[C@@H](CCC(=O)O)C(=O)N[C@H](C(=O)N[C@@H](Cc1ccc(O)cc1)C(N)=O)[C@@H](C)O)C(C)C)[C@@H](C)O
In the case of B2, the “Ratio hCT/hAmylin binding” value in test [1] stood at 13.3. In addition, the IC50 in test [2] was 1.86 nM; in test [3] it was 0.14 nM.

B3: N^ε1-[(4S)-4-carboxy-4-(19-carboxynonadecanoylamino)butanoyl]-[His14,Arg17,Pro21,Pro27,Arg34]-h-amylin (peptide)
peptide: K([γGlu-C20 diacid])CNTATCATQRLAHFLRHSSPNFGAIPSSTNVGRNTY-NH2
modifications: disulfide 2-7; N-terminus assumed
SMILES: CC[C@H](C)[C@H](NC(=O)[C@H](C)NC(=O)CNC(=O)[C@H](Cc1ccccc1)NC(=O)[C@H](CC(N)=O)NC(=O)[C@@H]1CCCN1C(=O)[C@H](CO)NC(=O)[C@H](CO)NC(=O)[C@H](Cc1c[nH]cn1)NC(=O)[C@H](CCCNC(=N)N)NC(=O)[C@H](CC(C)C)NC(=O)[C@H](Cc1ccccc1)NC(=O)[C@H](Cc1c[nH]cn1)NC(=O)[C@H](C)NC(=O)[C@H](CC(C)C)NC(=O)[C@H](CCCNC(=N)N)NC(=O)[C@H](CCC(N)=O)NC(=O)[C@@H](NC(=O)[C@H](C)NC(=O)[C@@H]1CSSC[C@H](NC(=O)[C@@H](N)CCCCNC(=O)CC[C@H](NC(=O)CCCCCCCCCCCCCCCCCCC(=O)O)C(=O)O)C(=O)N[C@@H](CC(N)=O)C(=O)N[C@@H]([C@@H](C)O)C(=O)N[C@@H](C)C(=O)N[C@@H]([C@@H](C)O)C(=O)N1)[C@@H](C)O)C(=O)N1CCC[C@H]1C(=O)N[C@@H](CO)C(=O)N[C@@H](CO)C(=O)N[C@H](C(=O)N[C@@H](CC(N)=O)C(=O)N[C@H](C(=O)NCC(=O)N[C@@H](CCCNC(=N)N)C(=O)N[C@@H](CC(N)=O)C(=O)N[C@H](C(=O)N[C@@H](Cc1ccc(O)cc1)C(N)=O)[C@@H](C)O)C(C)C)[C@@H](C)O
notes: also called compound 85
With B3, the “Ratio hCT/hAmylin binding” value in test [1] is 91.8. In addition, the IC50 in test [2] stood at 80.4 nM; in test [3], 0.876 nM.

B4: N^ε1-[(4S)-4-carboxy-4-(19-carboxynonadecanoylamino)butanoyl]-[Glu14,Arg17,Pro21,Pro27,Pro34,Arg35]-h-amylin (peptide)
peptide: K([γGlu-C20 diacid])CNTATCATQRLAEFLRHSSPNFGAIPSSTNVGPRTY-NH2
modifications: disulfide 2-7; N-terminus assumed
SMILES: CC[C@H](C)[C@H](NC(=O)[C@H](C)NC(=O)CNC(=O)[C@H](Cc1ccccc1)NC(=O)[C@H](CC(N)=O)NC(=O)[C@@H]1CCCN1C(=O)[C@H](CO)NC(=O)[C@H](CO)NC(=O)[C@H](Cc1c[nH]cn1)NC(=O)[C@H](CCCNC(=N)N)NC(=O)[C@H](CC(C)C)NC(=O)[C@H](Cc1ccccc1)NC(=O)[C@H](CCC(=O)O)NC(=O)[C@H](C)NC(=O)[C@H](CC(C)C)NC(=O)[C@H](CCCNC(=N)N)NC(=O)[C@H](CCC(N)=O)NC(=O)[C@@H](NC(=O)[C@H](C)NC(=O)[C@@H]1CSSC[C@H](NC(=O)[C@@H](N)CCCCNC(=O)CC[C@H](NC(=O)CCCCCCCCCCCCCCCCCCC(=O)O)C(=O)O)C(=O)N[C@@H](CC(N)=O)C(=O)N[C@@H]([C@@H](C)O)C(=O)N[C@@H](C)C(=O)N[C@@H]([C@@H](C)O)C(=O)N1)[C@@H](C)O)C(=O)N1CCC[C@H]1C(=O)N[C@@H](CO)C(=O)N[C@@H](CO)C(=O)N[C@H](C(=O)N[C@@H](CC(N)=O)C(=O)N[C@H](C(=O)NCC(=O)N1CCC[C@H]1C(=O)N[C@@H](CCCNC(=N)N)C(=O)N[C@H](C(=O)N[C@@H](Cc1ccc(O)cc1)C(N)=O)[C@@H](C)O)C(C)C)[C@@H](C)O
B4: the “Ratio hCT/hAmylin binding” value in test [1] was 38.6. Besides, the IC50 in test [2] was determined as 6.3 nM; in test [3], 0.163 nM.
